Reference: article PMC6075034

T1: Yra1 (Saccharomyces cerevisiae, UniProt Q12159 1-226)
T1 sequence: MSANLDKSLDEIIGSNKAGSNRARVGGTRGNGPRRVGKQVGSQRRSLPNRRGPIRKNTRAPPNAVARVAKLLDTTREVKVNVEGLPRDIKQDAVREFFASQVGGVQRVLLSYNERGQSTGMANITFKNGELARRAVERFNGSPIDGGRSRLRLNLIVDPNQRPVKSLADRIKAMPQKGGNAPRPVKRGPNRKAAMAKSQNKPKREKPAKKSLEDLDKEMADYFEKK

B1: 25-bp dsRNA (RNA-25 + complementary RNA; RNA-25C is printed identical to RNA-25, apparent misprint, complement built) (dsRNA)
RNA 1: GUGUAAUGUUGUUGCACGGCACGCU
RNA 2: AGCGUGCCGUGCAACAACAUUACAC
B2: RNA-25 ssRNA (ssRNA)
RNA: GUGUAAUGUUGUUGCACGGCACGCU
B3: DNA-25C ssDNA (ssDNA)
DNA: AGCGTGCCGTGCAACAACATTACAC
B4: 25-bp RNA-DNA hybrid (RNA-25/DNA-25C) (DNA:RNA)
RNA: GUGUAAUGUUGUUGCACGGCACGCU
DNA: AGCGTGCCGTGCAACAACATTACAC

molecular target: T1, Yra1; assay: EMSA

Binding result, binds:
B1
B2
B3
B4
